The record followed here is paper PMC8227628, “DisA Limits RecG Activities at Stalled or Reversed Replication Forks” (Cells, 2021).

Data set [1] deals with T1, DisA (Bacillus subtilis, UniProt P37573).
T1 construct: full length, expressed in E. coli BL21(DE3) pLysS; octamer; C-terminal His tag in the pull-down variant
T1 sequence (P37573 1-360): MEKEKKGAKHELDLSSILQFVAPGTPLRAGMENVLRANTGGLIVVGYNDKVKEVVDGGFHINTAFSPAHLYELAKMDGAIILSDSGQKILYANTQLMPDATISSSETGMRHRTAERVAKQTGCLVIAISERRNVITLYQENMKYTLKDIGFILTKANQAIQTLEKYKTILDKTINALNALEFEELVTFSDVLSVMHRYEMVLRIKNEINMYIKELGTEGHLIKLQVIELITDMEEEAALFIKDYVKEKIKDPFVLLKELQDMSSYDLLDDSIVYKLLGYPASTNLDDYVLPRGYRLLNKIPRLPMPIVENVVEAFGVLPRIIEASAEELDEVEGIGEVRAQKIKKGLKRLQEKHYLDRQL
Briefly: TLC of conversion to c-di-AMP. Particulars: 10 mM MgCl2, 100 µM ATP, pH 7.5, 37 °C, no DNA; labelled compound. Type of data set: biochemical.

For the next data set, the target named is T2, His-tagged DisA (B. subtilis, UniProt P37573 1-360).
T2 sequence (looked up): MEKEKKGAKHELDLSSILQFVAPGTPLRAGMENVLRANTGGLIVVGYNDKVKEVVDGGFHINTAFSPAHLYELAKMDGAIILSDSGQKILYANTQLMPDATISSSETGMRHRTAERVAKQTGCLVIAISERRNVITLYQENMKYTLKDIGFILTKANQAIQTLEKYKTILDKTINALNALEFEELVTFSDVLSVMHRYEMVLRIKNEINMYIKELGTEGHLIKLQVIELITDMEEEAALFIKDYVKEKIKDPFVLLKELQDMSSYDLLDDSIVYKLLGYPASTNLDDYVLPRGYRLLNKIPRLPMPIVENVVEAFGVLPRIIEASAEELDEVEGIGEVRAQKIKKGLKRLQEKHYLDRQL
The experiment in a line: cell-based or functional assay.

A further data set concerns the target T3, DisA;RecG (Bacillus subtilis;Bacillus subtilis, UniProt P37573;O34942 1-360;1-682, |).
T3 sequence 1: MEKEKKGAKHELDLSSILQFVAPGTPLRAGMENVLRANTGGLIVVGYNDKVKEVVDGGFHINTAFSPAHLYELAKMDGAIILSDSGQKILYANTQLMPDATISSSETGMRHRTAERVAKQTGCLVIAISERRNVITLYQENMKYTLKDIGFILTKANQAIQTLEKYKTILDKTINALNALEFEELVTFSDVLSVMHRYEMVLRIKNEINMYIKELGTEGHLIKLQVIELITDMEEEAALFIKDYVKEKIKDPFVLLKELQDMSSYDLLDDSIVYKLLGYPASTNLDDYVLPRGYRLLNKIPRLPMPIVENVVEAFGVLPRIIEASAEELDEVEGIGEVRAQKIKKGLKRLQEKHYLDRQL
T3 sequence 2: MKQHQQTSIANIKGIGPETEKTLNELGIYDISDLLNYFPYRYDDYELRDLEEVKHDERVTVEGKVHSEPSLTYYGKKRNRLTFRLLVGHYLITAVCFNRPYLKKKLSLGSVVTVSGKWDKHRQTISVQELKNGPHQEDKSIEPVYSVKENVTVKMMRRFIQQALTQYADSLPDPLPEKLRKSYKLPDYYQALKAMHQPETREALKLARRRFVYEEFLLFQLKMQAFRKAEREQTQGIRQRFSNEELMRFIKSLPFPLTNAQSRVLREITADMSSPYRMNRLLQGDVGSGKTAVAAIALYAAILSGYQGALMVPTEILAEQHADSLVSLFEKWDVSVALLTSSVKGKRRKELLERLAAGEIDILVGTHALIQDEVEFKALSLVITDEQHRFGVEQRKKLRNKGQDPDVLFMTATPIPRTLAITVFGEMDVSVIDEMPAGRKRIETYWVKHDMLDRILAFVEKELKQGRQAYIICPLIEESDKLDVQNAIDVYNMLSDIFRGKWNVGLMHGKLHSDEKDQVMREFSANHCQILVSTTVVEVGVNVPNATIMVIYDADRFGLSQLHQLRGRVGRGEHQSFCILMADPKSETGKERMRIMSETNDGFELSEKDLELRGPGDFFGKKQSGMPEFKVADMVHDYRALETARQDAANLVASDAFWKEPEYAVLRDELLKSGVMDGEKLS
The experiment in a line: DNase I footprinting; 5 mM ATPgS, 10 mM Mg2+; 60 nM RecG with increasing DisA; shorter protection on both sides of junction; ternary complex proposed; EMSA: 0.1 nM HJ-J3 in buffer B (composition not in material) with 5 mM ATPgS, 15 min, 37 C, 0.2% glutaraldehyde before 6% PAGE in TAE; DNase I: buffer C 50 mM Tris-HCl pH 7.5, 1 mM DTT, 50 mM NaCl, 10 mM MgCl2, 0.05 mg/mL BSA, 5% glycerol, 5 mM ATPgS, 37 C. Particulars: protein: recombinant;recombinant; tags: ;; chain copies: 8;1; label: 32P (gamma-32P, 5' end of one strand); four-way Holliday junction of 4 strands, 1 copy each, heterologous arms. A general note: A gel shift assay detects complexes by their altered migration in electrophoresis.

Another data set deals with T4, RecG (Bacillus subtilis, UniProt O34942 1-682).
T4 sequence: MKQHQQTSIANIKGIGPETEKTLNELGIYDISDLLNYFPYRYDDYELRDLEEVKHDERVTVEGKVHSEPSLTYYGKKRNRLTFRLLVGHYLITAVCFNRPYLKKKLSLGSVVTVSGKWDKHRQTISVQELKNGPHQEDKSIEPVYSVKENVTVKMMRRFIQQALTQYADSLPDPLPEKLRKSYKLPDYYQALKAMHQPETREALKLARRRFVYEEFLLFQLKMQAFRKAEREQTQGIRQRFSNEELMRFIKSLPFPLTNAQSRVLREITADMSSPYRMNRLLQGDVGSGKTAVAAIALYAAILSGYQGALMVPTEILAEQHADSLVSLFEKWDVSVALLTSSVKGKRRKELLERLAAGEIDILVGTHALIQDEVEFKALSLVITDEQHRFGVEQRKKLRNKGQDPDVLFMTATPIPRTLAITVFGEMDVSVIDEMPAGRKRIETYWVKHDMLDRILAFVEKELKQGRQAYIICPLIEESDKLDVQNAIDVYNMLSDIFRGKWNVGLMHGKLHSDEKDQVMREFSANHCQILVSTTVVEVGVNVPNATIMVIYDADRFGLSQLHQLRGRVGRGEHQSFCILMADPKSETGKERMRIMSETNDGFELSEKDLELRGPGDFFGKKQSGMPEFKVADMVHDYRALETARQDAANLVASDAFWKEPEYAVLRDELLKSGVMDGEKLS
The experiment in a line: EMSA; 5 mM ATPgS; 37 C; 0.2% glutaraldehyde before loading; apparent Kd; G-I and minor G-II complexes; EMSA: 0.1 nM HJ-J3 in buffer B (composition not in material) with 5 mM ATPgS, 15 min, 37 C, 0.2% glutaraldehyde before 6% PAGE in TAE; DNase I: buffer C 50 mM Tris-HCl pH 7.5, 1 mM DTT, 50 mM NaCl, 10 mM MgCl2, 0.05 mg/mL BSA, 5% glycerol, 5 mM ATPgS, 37 C. Particulars: protein: recombinant; label: 32P (gamma-32P, 5' end of one strand); four-way Holliday junction of 4 strands, 1 copy each, heterologous arms.

In data set [2] the target is T5, DisA (Bacillus subtilis, UniProt P37573 1-360).
T5 sequence: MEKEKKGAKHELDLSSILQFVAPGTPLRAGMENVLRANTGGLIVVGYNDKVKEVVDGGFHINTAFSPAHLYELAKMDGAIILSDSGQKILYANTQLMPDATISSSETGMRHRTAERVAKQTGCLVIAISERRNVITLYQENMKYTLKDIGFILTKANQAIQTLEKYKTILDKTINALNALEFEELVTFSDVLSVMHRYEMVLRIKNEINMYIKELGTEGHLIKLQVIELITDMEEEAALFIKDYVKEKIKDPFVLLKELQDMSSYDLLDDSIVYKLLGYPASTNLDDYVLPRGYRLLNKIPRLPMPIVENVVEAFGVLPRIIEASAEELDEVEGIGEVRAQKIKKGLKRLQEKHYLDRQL
Briefly: EMSA; 5 mM ATPgS; 37 C; 0.2% glutaraldehyde before loading; apparent Kd; complexes retained in well; EMSA: 0.1 nM HJ-J3 in buffer B (composition not in material) with 5 mM ATPgS, 15 min, 37 C, 0.2% glutaraldehyde before 6% PAGE in TAE; DNase I: buffer C 50 mM Tris-HCl pH 7.5, 1 mM DTT, 50 mM NaCl, 10 mM MgCl2, 0.05 mg/mL BSA, 5% glycerol, 5 mM ATPgS, 37 C. Particulars: protein: recombinant; chain copies: 8; label: 32P (gamma-32P, 5' end of one strand); four-way Holliday junction of 4 strands, 1 copy each, heterologous arms.

Turning to `Nc1ncnc2c1ncn2[C@@H]1O[C@@H]2COP(=O)(O)O[C@H]3[C@@H](O)[C@H](n4cnc5c(N)ncnc54)O[C@@H]3COP(=O)(O)O[C@H]2[C@H]1O` [c-di-AMP], on DisA [1], the “TLC of [α^32P]-ATP conversion to c-di-AMP” value is “it efficiently converted two ATP molecules into c-di-AMP”.

B1: native RecG (natural protein, B. subtilis, UniProt O34942 1-682, looked up)
chain: MKQHQQTSIANIKGIGPETEKTLNELGIYDISDLLNYFPYRYDDYELRDLEEVKHDERVTVEGKVHSEPSLTYYGKKRNRLTFRLLVGHYLITAVCFNRPYLKKKLSLGSVVTVSGKWDKHRQTISVQELKNGPHQEDKSIEPVYSVKENVTVKMMRRFIQQALTQYADSLPDPLPEKLRKSYKLPDYYQALKAMHQPETREALKLARRRFVYEEFLLFQLKMQAFRKAEREQTQGIRQRFSNEELMRFIKSLPFPLTNAQSRVLREITADMSSPYRMNRLLQGDVGSGKTAVAAIALYAAILSGYQGALMVPTEILAEQHADSLVSLFEKWDVSVALLTSSVKGKRRKELLERLAAGEIDILVGTHALIQDEVEFKALSLVITDEQHRFGVEQRKKLRNKGQDPDVLFMTATPIPRTLAITVFGEMDVSVIDEMPAGRKRIETYWVKHDMLDRILAFVEKELKQGRQAYIICPLIEESDKLDVQNAIDVYNMLSDIFRGKWNVGLMHGKLHSDEKDQVMREFSANHCQILVSTTVVEVGVNVPNATIMVIYDADRFGLSQLHQLRGRVGRGEHQSFCILMADPKSETGKERMRIMSETNDGFELSEKDLELRGPGDFFGKKQSGMPEFKVADMVHDYRALETARQDAANLVASDAFWKEPEYAVLRDELLKSGVMDGEKLS
For the molecule B1, the “inhibition of the DAC activity (c-di-AMP synthesis) of DisA (25 nM) with HJ-J3 DNA (125 nM) and 100 µM ATP, RecG 7 to 30 nM” value in the data set with His-tagged DisA is around 11 fold.

B2: HJ-J3 DNA (fixed Holliday junction) (structured_DNA)
DNA 1: CGCAAGCGACAGGAACCTCGAGAAGCTTCCGGTAGCAGCCTGAGCGGTGGTTGAATTCCTCGAGGTTCCTGTCGCTTGCG
DNA 2: CGCAAGCGACAGGAACCTCGAGGAATTCAACCACCGCTCAACTCAACTGCAGTCTAGACTCGAGGTTCCTGTCGCTTGCG
DNA 3: CGCAAGCGACAGGAACCTCGAGTCTAGACTGCAGTTGAGTCCTTGCTAGGACGGATCCCTCGAGGTTCCTGTCGCTTGCG
DNA 4: CGCAAGCGACAGGAACCTCGAGGGATCCGTCCTAGCAAGGGGCTGCTACCGGAAGCTTCTCGAGGTTCCTGTCGCTTGCG
Regarding B2, the binding result with DisA;RecG is reported as “binds”. The figures for the Kd with RecG and in the data set with DisA [2] were 4 ± 0.3 nM and 17 ± 1 nM, respectively.
